The target of this experiment is T1, human CD39 (vascular CD39, NTPDase1, ENTPD1) expressed at the cell surface (human, UniProt P49961 1-510).
T1 construct: also called huCD39; CHO-huCD39
T1 sequence: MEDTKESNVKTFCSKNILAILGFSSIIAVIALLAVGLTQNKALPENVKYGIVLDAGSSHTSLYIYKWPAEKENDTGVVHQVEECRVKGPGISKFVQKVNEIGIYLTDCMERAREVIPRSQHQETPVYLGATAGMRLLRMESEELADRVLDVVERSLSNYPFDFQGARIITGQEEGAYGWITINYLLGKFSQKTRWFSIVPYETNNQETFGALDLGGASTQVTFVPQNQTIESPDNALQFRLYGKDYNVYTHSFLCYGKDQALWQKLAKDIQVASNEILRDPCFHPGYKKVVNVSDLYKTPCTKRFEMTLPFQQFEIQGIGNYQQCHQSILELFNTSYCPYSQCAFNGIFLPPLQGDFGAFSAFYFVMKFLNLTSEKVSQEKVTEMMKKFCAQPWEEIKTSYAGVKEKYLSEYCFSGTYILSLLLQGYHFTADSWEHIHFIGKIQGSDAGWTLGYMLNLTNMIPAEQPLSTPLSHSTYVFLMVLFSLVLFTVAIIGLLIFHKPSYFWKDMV
Put plainly: flow cytometry on CHO cells expressing human CD39. As for the experimental part:
Cells were incubated with various concentration of unlabeled anti-CD39 antibody from 30 μg/ml to 5×10-⁴ μg/ml, for 30 minutes at 4° C. After washes, cells were incubated with Goat anti-mouse H+L labeled secondary antibody for 30 min at 4° C.
Antibodies mAb1-21 were assessed for binding to CD39 by flow cytometry as described in Example 7, using CHO cells expressing human CD39 and CHO cells expressing cynomolgus (Macaca fascicularis) CD39.
For orientation: A flow cytometer gives signals particle by particle.

B1: mAb20 H4L1 (antibody, human IgG1, kappa, V domains shown)
VH: QVQLVQSGAEVKKPGASVKVSCKASGYTFTDYNMHWVRQAPGQRLEWIGYIVPLNGGSTFNQKFKGRATITVDTSARTAYMELSSLRSEDTAVYYCARGGTRFAYWGQGTLVTVSS
VL: DIVMTQSPDSLAVSLGERATINCRASESVDNFGVSFMYWFQQKPGQPPKLLIYGASNQGSGVPDRFSGSGSGTDFTLTISSLQAEDVAVYYCQQTKEVPYTFGGGTKVEIKR
notes: The full heavy chain carries L234A/L235E/G237A/A330S/P331S
For B1, the binding result is “binds”.

Values taken from patent US20200024357A1 (published 2020).
